Measurements as given in PMC1310897.

What was measured:
Test in all cases: fluorescence polarization
[1] = molecular target: RecQ WT (Escherichia coli, UniProt P15043 1-609)
[2] = molecular target: RecQ F158L (Escherichia coli, UniProt P15043 1-609, F158L)
[3] = molecular target: RecQ W154L (Escherichia coli, UniProt P15043 1-609, W154L)
[4] = molecular target: RecQ R159L (Escherichia coli, UniProt P15043 1-609, R159L)

Measured: binding result

GCGTGGGTAATTGTGCTTCAATGGACTGAC (ssDNA) [oligo 1 ssDNA (30 nt)]
binds: all assays above
